This data set is described as follows: yeast display, Sf9 membrane polyspecificity reagent, FACS + sequencing; frameworks hold sequencing errors. In short, it runs like this:
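A synthetic nanobody library was expressed on Saccharomyces cerevisiae BJ5465 by galactose induction for 36–48 hours. The library was stained for 1 hour at 4 °C with 10% biotinylated, detergent-solubilized Sf9 membrane reagent and enriched with streptavidin microbeads before FACS. Low and high (top ~1%) gates were set on anti-HA fluorescence for expression and streptavidin fluorescence for reagent binding, and each polyreactivity label reflects the gate of origin.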
For “QVQLVESGGGLVQAGGSLRLSCAASGRTFTAYAMGWYRQAPGKERELVAAISVGGGSTYYADSVKGRFTISRDNAKNTVYLQMNSLKPEDTAVYYCAADRSYYLDGYDYWGQGTQVTVSS”, the “polyreactivity (PSR sort gate)” value is “low polyreactivity”.

For the sequence “QVQLVESGGRLVQAGGSLRLICADSGGIFGRYAMGWSRQAHGKERELVAAISKNGDSTYYAYSVKGRFTISRDNAKNTVYLKMNSLKPEDTAVYYCAAAKYRPKYGKNDYLGQGTQVTVSS”, the “polyreactivity (PSR sort gate)” value is on record as “low polyreactivity”.

For “QVQLVESGGGLVQAGGSLRLSCAASGITFEGYALGWYRQAPGKERELVAAIRSSGTSTYYADSVKGRFTISRDNAKNTVYLQMNSLKPEDTAVYYCNRARSSSRYDYWGQGTQVTVSS”, the “polyreactivity (PSR sort gate)” value is “low polyreactivity”.

For “QVQLVESGGGLVQAGGSLRLSCAASGGIFAVNVMGWYRQAPGKERELVAAITSTGSTYYADSVKGRFTISRDNAKNTVYLQMNSLKPEDTAVYYCASDYVYYDSYDDTVFGYEYWGQGTQVTVSS”, the “polyreactivity (PSR sort gate)” value was “high polyreactivity”.

On to “QVQLVESGGGLLQAGGSLRLSCAASGSIFTLYDMGRYRQAPGKERELVAAITSGGSTDYADSVKGRFTISRDYAKNTVFLQMNSLKPEDTAVYYCNAEAYPYWYRGASRDYDYWGQGTQVTVSS”, for which the “polyreactivity (PSR sort gate)” value is given as “low polyreactivity”.

For the sequence “QVQLVESGGGLVQAGGSLRLTCADTGNIFVRNAMGWYRQAPGKERELVADISTGADTNYADSVKGRFTISRDNAKNTFYLQKNSLKPEDTAVYYCAAAAEVGEIGYWPMVYWGQVTQVTVSS”, the “polyreactivity (PSR sort gate)” value is “high polyreactivity”.

Turning to “QVQLVESGGGLVQAGGSLRLICDASGNTIIRYAMGWYRQGPGKERELVAAISYSGGRTYYADSVKGRFTISRDNAKNTVYLQMNSLKTEVTAVYYCNAASRYGCDYWRQGTQVTVSS”, the “polyreactivity (PSR sort gate)” value is “high polyreactivity”.

“QVQLVESGGRLVQAGGSLRLSCAASGFIISFNAMGWYRQATGKERELVATISGGGGSTYYADSVKGRFTISRDKAKNTVYLQMKSLKPEDTAVYYCAKSYRYRGDYWGQGTQVTVSS”: the “polyreactivity (PSR sort gate)” value is recorded as “high polyreactivity”.

On to “QVQLVESGGGLVQAGGSLRLSCAASGSIFRINAMGWYRPARGKERELVAATTKYADSVKGRFTISRDNAKNTVYLQMHSLKPEDTAVYYCAAAPIGGSSHPYDYWGQGTQVTVTS”, for which the “polyreactivity (PSR sort gate)” value is recorded as “low polyreactivity”.

For the sequence “QVQLVESGGGLVQAGGSLRLSCAASGFIFVIYAKGWYRQAPGKERELVARISFRSGRTYYADSVKGRFTISRDNAKNTVYLQMNSLKPEDTAVYYCNAVLYGQYKYDYWGQGTQVTVSS”, the “polyreactivity (PSR sort gate)” value was “high polyreactivity”.

Turning to “QVQLVESGGGLVQAGGSLRLSRAASGRIFHLYAMGWYRQAPGKERELVAAITGRGGSTYYADSVKGRFTISRDNAKNTVYLQMNSLKPEDTAVYYCAAYEFGFLRYYSGRSYYYWGQGTQVTVSS”, the “polyreactivity (PSR sort gate)” value was “high polyreactivity”.

For “QVQLVESGGGLVQAGGSLRLSCAASGFIFARNTMGWYRQAPGKERELVAAITKSGGSTYYADSVKGRFTISRDNAKNTVYLQMNSPKPEDTSVYYCAARSWWLRGIYGFDSWGQGTQVTVSS”, the “polyreactivity (PSR sort gate)” value was “low polyreactivity”.

As for “QVQLVESGGGLVQAGGSLRLSCAASGSIFPQNAMGWYRQAPGKERELVASITSRGGITNYADSVKGRFTISRDNAKNTVYLQMNSLKPEDSAVYYCAADLYIYPYDYWGQGTQVTVSS”, the “polyreactivity (PSR sort gate)” value was “low polyreactivity”.

“QVQLVESGGGLVQAGGSLRLSCAASGFIFLWYAMGWYRQAPGKERELVAAISSGGGRTHYADSVKGRFTISRDNAKNTVYLQMNSLKPEDTAVYYCAAALRGQASRFDYWGQGTKVTVSS”: the “polyreactivity (PSR sort gate)” value is on record as “high polyreactivity”.

For “QVQIVESGGGLVQAGGSLRLSCAAYGSIFRLYAMGWYRQAPGKERDFVARIRWRGGSTNYPDSVKASFTISRDNAKNTVFVQMNSQKTVDTAVYYCAAKQGTVRAHTFVPWYDYWGQGTQVSVSS”, the “polyreactivity (PSR sort gate)” value is recorded as “high polyreactivity”.

For the sequence “QVQLVESGGGLVQAGCSLRISCAASGFTFGKYAMGLYRQAPGNERELVAAITQCGGSTYYADSVKGRFTISRDNAKNTVYLQMNSLKPEYTAVYYCAADRRRQYRPGGYWGQGTQVTVSS”, the “polyreactivity (PSR sort gate)” value was “high polyreactivity”.

Take “QVQLVESGGGLVQAGGSLRLSCAACGRTLRTYGMGWYRQAPGKERELVATITRRGDSTYYADSVKGRFTISRDNAKNTVYLQMNSLKPEDTAVYYSNTASYGRHQFRKSSKMDYWGQGTQVTVSS”: the “polyreactivity (PSR sort gate)” value is “high polyreactivity”.

With “QVQLVESGGGLVQAGGSLRLSCAASGSIFDDYAMGGYRQAHGKERELVAAISSSGTSTYYADSVKGRFTISRDNAKNTVYLQMNCLKPEDTAVYYCAARSAILKSAYLMDYWGQGTQVTVSS”, the “polyreactivity (PSR sort gate)” value was “low polyreactivity”.

On to “QVQHVESGGGLVQAGRSLRLSCAASGILRRYAMGWYIQERGKERELVAAITRTGGRTYYADSVKGRFTISRDNAKNTVYLQMNSLKPEDTAVYYCATDRYVVSGMDYWGQGTQVTVSS”, for which the “polyreactivity (PSR sort gate)” value was “high polyreactivity”.

In the case of “QVQLVESGGGLVQAGGSLRLSCAASGSIFGGYAMGWYRQAPGKERELVAAIDESGGSTYYADSVKGRFTISRDNAKNTVYLQMNSLKPDDTAVDYCLVFRDDSGPGDYYYWGQGTQVTVSS”, the “polyreactivity (PSR sort gate)” value was “low polyreactivity”.

Take “QVQLVESGGGLVQAGGSLRLICAASGRIFPSNAMGGSIQAPGKERELVAAINTGGSTYYADSVKGRFTISRDNAKNTVYLQMNSQKPEDTAVYYCAAARRYYYYWGQGTQVTVSS”: the “polyreactivity (PSR sort gate)” value is recorded as “high polyreactivity”.

Consider “QVQLVESGGGLVQAGGSLRISCAASGSILFGNAMGWYRQAPGKERELVAAITVSGGSTYYADSVKGRFTISRDNAKNTVYLQMNSLKPEDTAVYYCAAVSLFRDSQFDYWGQGTQVTVSS”, for which the “polyreactivity (PSR sort gate)” value was “low polyreactivity”.

In the case of “QVQLVESGGGLVQAGGSLRLSCAACGSIFYGNAMGWDRQAPGKVRELVAAITQGATSTYYADSVKGRFTISRDNAKNTVDLQMNSLKPEDTAVYYCAAVLAWRYTYYYWGQGTQVTVSS”, the “polyreactivity (PSR sort gate)” value is listed as “high polyreactivity”.

Consider “QVQLVESGGGLVQAGGSLRLSCAASGRIFGWYAMGWYRQAPGKERELVAAISSSGVSTNYADSVKGRFTISRDNAKNTVYLQMNSLKPEDTAVYYCIARGFYWYRPYVNSNGGYWGQGTQVTVSS”, for which the “polyreactivity (PSR sort gate)” value is recorded as “high polyreactivity”.

For “QVQLVESGGGLVQAGGSLRLSCAASGSTFEHYAMGWYRQAPGKERELVAAISYTGGNTYYADSVKGRFTISRDNAKNTVYLQMNSLKPEDTAVYYCAAAPLYYHRRGYYYWGQGTQVTVSS”, the “polyreactivity (PSR sort gate)” value was “high polyreactivity”.

For the sequence “QDQLVESGGGLVQAGGSLRLSCAASGFTFTIYAMGGYRQAPGKEREFVAAISYTDGSTFYVDSVKGRFTISRDYAKNTVYLQMTSLKPEDTAVYYCAKDRPGWVHRRPTGGFDYWGQGTQVTVSS”, the “polyreactivity (PSR sort gate)” value was “low polyreactivity”.

In the case of “QVQLVESGGGLVQAGGSLRLSCAASGSIFTQYTMGWYRQAPGKERELVAAISRSGGRTYYADSVKGRFTISRDIAKNTVYLQMNSLKPEDTAVYYCAAEYTDKYEYWGQGTQVTVSS”, the “polyreactivity (PSR sort gate)” value was “high polyreactivity”.

As for “QVQLVESGGGLVQAGGNLRLSCAASGIILYRYAMGWYRQAHGKERELVAAISRRGGSTYYADSVKGRFTISRDNAKNSVYLQMNSLKPEDTAVYYCAAYYRGYAYYYWGQGTQVTVSS”, the “polyreactivity (PSR sort gate)” value is reported as “high polyreactivity”.

For “QVQLVESGGGLVQAGGSLRLSCAASGRIFVYNAMGWYRQAPGQERELVAAISRGGSTNYADSVKGRFTISRDNAKNTVYLQMNSLKPEDTAVYYCAADIYQYGYDYWGQGTQVTVSS”, the “polyreactivity (PSR sort gate)” value was “low polyreactivity”.

As for “QVQLVESGGGLVQAGGSLRLSCAASGSIFWGNAMGWYRQAPGKERELVAAIDWSGGSTYYADSVKGRFTISRDNAKNTVYLQMNSLKPEDTAVYYCAASGRYDYDYWGQGTQVTVSS”, the “polyreactivity (PSR sort gate)” value is “low polyreactivity”.
